Laboratory results from patent publication US20120225071A1 (Hoffmann-La Roche, published 2012).

B1: wildtype <IGF-1R> antibody (antibody, V domains shown)
VH: QVELVESGGGVVQPGRSQRLSCAASGFTFSSYGMHWVRQAPGKGLEWVAIIWFDGSSTYYADSVRGRFTISRDNSKNTLYLQMNSLRAEDTAVYFCARELGRRYFDLWGRGTLVSVSS
VL: EIVLTQSPATLSLSPGERATLSCRASQSVSSYLAWYQQKPGQAPRLLIYDASKRATGIPARFSGSGSGTDFTLTISSLEPEDFAVYYCQQRSKWPPWTFGQGTKVESKR
notes: Human IgG1/kappa antibody described in WO 2005/005635; also called <IGF-1R> wildtype antibody; <IGF-1R> control antibody
B2: monospecific, bivalent <ANGPT2> wildtype antibody (antibody, V domains shown)
VH: EVQLVQSGGGVVQPGRSLRLSCAASGFTFSSYGMHWVRQAPGKGLEWVSYISSSGSTIYYADSVKGRFTISRDNAKNSLYLQMNSLRAEDTAVYYCARDLLDYDILTGYGYWGQGTLVTVSS
VL: not shown
notes: Human IgG1/kappa antibody described in WO 2006/045049; also called wildtype <ANGPT2> antibody; <Ang-2> control antibody

Legend:
[1] = target: T1, human ANGPT2 (R&D Systems) (human, UniProt O15123 68-496, limits assumed); assay: cellular FACS IGF-1R-ANGPT2 bridging assay on I24 cells; antibody on cells, then ANGPT2, detected with biotinylated anti-ANGPT2 and Streptavidin-PE
T1 construct: Bought reagent; also called hANGPT2; Angiopoietin-2
T1 sequence (looked up): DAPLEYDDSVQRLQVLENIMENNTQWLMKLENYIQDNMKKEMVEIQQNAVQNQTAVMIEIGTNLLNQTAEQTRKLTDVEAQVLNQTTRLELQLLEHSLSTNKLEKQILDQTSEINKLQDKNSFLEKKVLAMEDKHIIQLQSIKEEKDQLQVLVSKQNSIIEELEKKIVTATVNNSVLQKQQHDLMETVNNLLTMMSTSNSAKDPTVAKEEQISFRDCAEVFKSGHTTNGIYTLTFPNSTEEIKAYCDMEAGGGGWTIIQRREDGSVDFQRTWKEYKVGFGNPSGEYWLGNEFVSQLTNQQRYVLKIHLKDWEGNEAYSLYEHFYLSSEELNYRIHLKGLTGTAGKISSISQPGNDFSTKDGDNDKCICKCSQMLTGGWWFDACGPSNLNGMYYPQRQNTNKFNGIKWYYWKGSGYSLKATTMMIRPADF
Protocol: (§1) The assay principle is depicted in FIG. 10.
(§2) Briefly, 5×10E5 I24 cells per FACS tube were incubated with total purified antibody mix and incubated on ice for 1 h (titration 160 μg/ml mix). The respective purified antibodies wildtype <IGF-1R> and <ANGPT2> were applied to the I24 cells as controls. Unbound antibody was washed away with 4 ml ice cold PBS (Gibco)+2% FCS (Gibco), cells were centrifuged (5 min at 400 g) and bound bispecific antibody was detected with 50 μl 2 μg/mL human ANGPT2 (R&D Systems) for 1 h on ice. Subsequently, unbound ANGPT2 was washed away once or twice with 4 ml ice cold PBS (Gibco)+2% FCS (Gibco), cells were centrifuged (5 min at 400 g) and bound ANGPT2 was detected with 50 μl 5 μg/mL <ANGPT2>mIgG1-Biotin antibody (BAM0981, R&D Systems) for 45 min on ice; alternatively, cells were incubated with 50 μl 5 μg/mL mIgG1-Biotin-Isotype control (R&D Systems). Unbound detection antibody was washed away with 4 ml ice cold PBS (Gibco)+2% FCS (Gibco), cells were centrifuged (5 min at 400 g) and bound detection antibody was detected with 50 μl 1:400 Streptavidin-PE conjugate (Invitrogen/Zymed) for 45 min on ice protected from light. Unbound Streptavidin-PE conjugate was washed away with 4 ml ice cold PBS+2% FCS. […]

[2] = target: T2, recombinant human IGF-1R on I24 cells (NIH3T3 cells expressing recombinant human IGF-1R) (human, UniProt P08069 31-1367); assay: cellular FACS IGF-1R-ANGPT2 bridging assay on I24 cells; antibody on cells, washed, then ANGPT2, detected with biotinylated anti-ANGPT2 and Streptavidin-PE
T2 construct: whole, on cells; also called IGF-1R in I24 cells
Protocol: as §1, §2

| Binder | binding result [1] | binding result [2] |
| --- | --- | --- |
| B1 | no binding (tested: 2 µg/mL human ANGPT2) | – |
| B2 | – | no binding |
